Source: patent US20120231006A1 (Amgen, published 2012)

Experiments:
[1] = molecular target: T1, hOrai1-mOrai1 ECL2 chimeric protein (human/mouse chimera, UniProt Q96D31 1-301); test: FACS, 293EBNA; set-up: concentration or dose not given beside the values
T1 construct: human Orai1 with mouse ECL2; also called Ch
From the text: (§1) FIG. 16A-D illustrates the results of FACS analysis showing binding to the indicated mOrai1-hOrai1 ECL2 chimeric mutants expressed on the surface of HEK-293-EBNA cells. Transfected cells were stained first with recombinant monoclonal antibodies then counter-stained with a secondary phycoerythrin-labeled goat (“Gt”) anti-human (“Hu”) IgG F(ab′)₂ antibody fragment and visualized using FACS. In FIG. 16B and FIG. 16D, The values of Relative Fluorescence Intensity as Percent of Control (RFI-POC) are calculated from the relative fluorescence intensity geometric mean (Geo Mean). The geometric mean is an average calculated by multiplying a series of numbers and taking the nth root where n is the number of numbers in the series. It is a statistical average of a set of transformed numbers often used to represent a central tendency in a highly variable data set that minimizes the effects of extreme values.
(§2) Table 11A and Table 11B feature a schematic representation of the POC data from FIG. 16B and FIG. 16D, respectively, where the binding results are recorded as (+++) denoting binding POC from 40% to 100%, (++) for POC of 5% to less than 40%, (+) for POC from 1% to less than 5% and (−) as lack of binding with POC less than 1%.

[2] = molecular target: T2, mOrai1-hOrai1 ECL2 (…) protein (human/mouse chimera, UniProt Q8BWG9 1-304 (mouse entry)); test: FACS, 293EBNA; set-up: concentration or dose not given beside the values
T2 construct: also called Ch
From the text: as §1, §2
T2 sequence (Q8BWG9 other isoform, or with tags, fused parts or gaps): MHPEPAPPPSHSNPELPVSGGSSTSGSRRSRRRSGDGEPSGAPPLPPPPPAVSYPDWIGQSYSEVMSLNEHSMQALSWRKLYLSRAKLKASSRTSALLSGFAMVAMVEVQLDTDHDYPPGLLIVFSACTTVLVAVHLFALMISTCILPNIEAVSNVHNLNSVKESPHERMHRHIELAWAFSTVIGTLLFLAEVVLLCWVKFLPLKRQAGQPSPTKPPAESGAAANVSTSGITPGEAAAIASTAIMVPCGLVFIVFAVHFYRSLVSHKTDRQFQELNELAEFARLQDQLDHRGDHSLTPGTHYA

[3] = molecular target: T3, mOrai1-hOrai1 ECL2 (SPTKPPAE) protein (human/mouse chimera, UniProt Q8BWG9 1-304 (mouse entry)); test: FACS, 293EBNA; set-up: concentration or dose not given beside the values
T3 construct: also called Ch
T3 sequence (Q8BWG9 other isoform, or with tags, fused parts or gaps): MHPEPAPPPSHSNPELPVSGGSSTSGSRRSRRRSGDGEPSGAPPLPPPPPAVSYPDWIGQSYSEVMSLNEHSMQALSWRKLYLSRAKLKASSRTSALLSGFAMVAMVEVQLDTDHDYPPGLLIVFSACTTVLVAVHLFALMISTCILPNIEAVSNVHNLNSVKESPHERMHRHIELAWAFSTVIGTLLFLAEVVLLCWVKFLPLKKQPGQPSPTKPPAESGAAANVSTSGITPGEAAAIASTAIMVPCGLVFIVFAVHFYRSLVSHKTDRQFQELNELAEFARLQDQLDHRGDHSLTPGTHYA
From the text: as §1, §2

[4] = molecular target: T4, mOrai1-hOrai1 ECL2 (KPPAE) protein (human/mouse chimera, UniProt Q8BWG9 1-304 (mouse entry)); test: FACS, 293EBNA; set-up: concentration or dose not given beside the values
T4 construct: also called Ch
T4 sequence (Q8BWG9 other isoform, or with tags, fused parts or gaps): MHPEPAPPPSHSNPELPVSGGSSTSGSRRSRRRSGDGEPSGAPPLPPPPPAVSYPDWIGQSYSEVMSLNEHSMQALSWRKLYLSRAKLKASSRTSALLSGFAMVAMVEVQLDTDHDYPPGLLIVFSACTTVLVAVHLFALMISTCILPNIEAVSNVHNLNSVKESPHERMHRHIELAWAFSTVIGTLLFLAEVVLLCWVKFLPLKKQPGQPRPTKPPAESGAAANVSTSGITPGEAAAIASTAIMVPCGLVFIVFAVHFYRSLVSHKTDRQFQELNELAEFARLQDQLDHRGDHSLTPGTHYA
From the text: as §1, §2

[5] = molecular target: T5, mOrai1-hOrai1 ECL2 (…) protein (human/mouse chimera, UniProt Q8BWG9 1-304 (mouse entry)); test: FACS, 293EBNA; set-up: concentration or dose not given beside the values; remark: listed apart in the source
T5 construct: also called Ch
From the text: as §1, §2
T5 sequence (Q8BWG9 other isoform, or with tags, fused parts or gaps): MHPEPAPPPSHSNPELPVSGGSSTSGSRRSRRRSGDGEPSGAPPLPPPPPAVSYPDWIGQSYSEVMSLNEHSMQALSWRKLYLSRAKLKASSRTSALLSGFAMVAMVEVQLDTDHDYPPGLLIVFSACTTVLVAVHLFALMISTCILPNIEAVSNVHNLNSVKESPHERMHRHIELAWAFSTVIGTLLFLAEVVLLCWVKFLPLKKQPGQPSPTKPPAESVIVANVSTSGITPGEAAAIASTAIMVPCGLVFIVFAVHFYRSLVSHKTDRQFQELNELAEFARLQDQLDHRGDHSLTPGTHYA

[6] = molecular target: T6, mOrai1-hOrai1 ECL2 (…) protein (human/mouse chimera, UniProt Q8BWG9 1-304 (mouse entry)); test: FACS, 293EBNA; set-up: concentration or dose not given beside the values; remark: listed apart in the source
T6 construct: also called Ch
From the text: as §1, §2
T6 sequence (Q8BWG9 other isoform, or with tags, fused parts or gaps): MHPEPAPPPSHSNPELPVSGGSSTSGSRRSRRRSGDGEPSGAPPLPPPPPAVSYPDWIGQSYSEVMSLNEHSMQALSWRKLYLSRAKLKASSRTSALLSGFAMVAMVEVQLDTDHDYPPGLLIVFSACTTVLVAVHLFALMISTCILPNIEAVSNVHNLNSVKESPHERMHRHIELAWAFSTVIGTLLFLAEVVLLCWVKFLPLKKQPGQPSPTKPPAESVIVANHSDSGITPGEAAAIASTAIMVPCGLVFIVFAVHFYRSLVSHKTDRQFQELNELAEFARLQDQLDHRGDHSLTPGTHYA

[7] = molecular target: T7, mOrai1-hOrai1 ECL2 (…) protein (human/mouse chimera, UniProt Q8BWG9 1-304 (mouse entry)); test: FACS, 293EBNA; set-up: concentration or dose not given beside the values; remark: listed apart in the source
T7 construct: also called Ch
From the text: as §1, §2
T7 sequence (Q8BWG9 other isoform, or with tags, fused parts or gaps): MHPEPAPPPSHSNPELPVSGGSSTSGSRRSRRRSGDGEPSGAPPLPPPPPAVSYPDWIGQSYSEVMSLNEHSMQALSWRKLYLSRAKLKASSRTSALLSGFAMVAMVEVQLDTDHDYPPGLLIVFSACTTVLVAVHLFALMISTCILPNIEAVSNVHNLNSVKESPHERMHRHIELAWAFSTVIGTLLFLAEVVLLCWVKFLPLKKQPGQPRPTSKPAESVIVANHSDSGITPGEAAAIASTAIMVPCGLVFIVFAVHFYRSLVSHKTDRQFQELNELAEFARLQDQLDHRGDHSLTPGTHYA

[8] = molecular target: T8, mOrai1-hOrai1 ECL2 (AESVIV) protein (human/mouse chimera, UniProt Q8BWG9 1-304 (mouse entry)); test: FACS, 293EBNA; set-up: concentration or dose not given beside the values
T8 construct: also called Ch
T8 sequence (Q8BWG9 other isoform, or with tags, fused parts or gaps): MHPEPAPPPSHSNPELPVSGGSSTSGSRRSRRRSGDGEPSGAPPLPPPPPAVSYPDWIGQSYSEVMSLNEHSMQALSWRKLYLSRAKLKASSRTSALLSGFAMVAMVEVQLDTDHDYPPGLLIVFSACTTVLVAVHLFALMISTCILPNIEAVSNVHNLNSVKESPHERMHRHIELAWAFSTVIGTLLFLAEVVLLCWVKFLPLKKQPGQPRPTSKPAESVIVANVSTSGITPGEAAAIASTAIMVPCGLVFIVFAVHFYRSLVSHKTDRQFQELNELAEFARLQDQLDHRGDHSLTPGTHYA
From the text: as §1, §2

[9] = molecular target: T9, mOrai1-hOrai1 ECL2 chimeric protein (human/mouse chimera, UniProt Q8BWG9 1-304 (mouse entry)); test: FACS, 293EBNA, RFI-POC grade; set-up: concentration or dose not given beside the values
T9 construct: mouse Orai1 with human ECL2; also called Ch
T9 sequence (Q8BWG9 other isoform, or with tags, fused parts or gaps mutant): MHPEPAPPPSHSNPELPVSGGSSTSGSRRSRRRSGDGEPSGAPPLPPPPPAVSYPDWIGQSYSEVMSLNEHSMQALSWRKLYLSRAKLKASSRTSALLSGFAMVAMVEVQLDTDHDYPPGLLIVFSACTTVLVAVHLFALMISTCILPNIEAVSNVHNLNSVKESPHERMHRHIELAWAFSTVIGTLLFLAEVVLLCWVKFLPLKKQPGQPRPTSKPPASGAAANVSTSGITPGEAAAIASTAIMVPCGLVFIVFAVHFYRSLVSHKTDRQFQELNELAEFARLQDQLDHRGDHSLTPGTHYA

[10] = molecular target: T10, hOrai1-mOrai1 ECL2 (…) protein (human/mouse chimera, UniProt Q96D31 1-301); test: FACS, 293EBNA, RFI-POC grade; set-up: concentration or dose not given beside the values
T10 construct: also called Ch
T10 sequence (Q96D31 other isoform, or with tags, fused parts or gaps): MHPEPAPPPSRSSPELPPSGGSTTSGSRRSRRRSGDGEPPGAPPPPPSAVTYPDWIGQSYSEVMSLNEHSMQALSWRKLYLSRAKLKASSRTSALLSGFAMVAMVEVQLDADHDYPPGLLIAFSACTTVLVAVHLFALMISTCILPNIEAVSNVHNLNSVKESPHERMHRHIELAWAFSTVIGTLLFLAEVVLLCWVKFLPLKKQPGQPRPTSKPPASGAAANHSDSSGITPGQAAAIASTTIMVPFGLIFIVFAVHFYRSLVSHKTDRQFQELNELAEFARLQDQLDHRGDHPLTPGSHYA

[11] = molecular target: T11, hOrai1-mOrai1 ECL2 (…) protein (human/mouse chimera, UniProt Q96D31 1-301); test: FACS, 293EBNA, RFI-POC grade; set-up: concentration or dose not given beside the values; remark: listed apart in the source
T11 construct: also called Ch
T11 sequence (Q96D31 other isoform, or with tags, fused parts or gaps): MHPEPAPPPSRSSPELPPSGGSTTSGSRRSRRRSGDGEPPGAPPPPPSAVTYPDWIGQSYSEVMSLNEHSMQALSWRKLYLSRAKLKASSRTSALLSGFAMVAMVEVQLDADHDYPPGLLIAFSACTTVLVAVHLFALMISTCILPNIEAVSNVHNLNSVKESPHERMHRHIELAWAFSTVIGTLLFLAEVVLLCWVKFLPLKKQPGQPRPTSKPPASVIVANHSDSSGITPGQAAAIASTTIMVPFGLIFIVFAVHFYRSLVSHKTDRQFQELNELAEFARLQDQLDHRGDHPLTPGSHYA

[12] = molecular target: T12, hOrai1-mOrai1 ECL2 (…) protein (human/mouse chimera, UniProt Q96D31 1-301); test: FACS, 293EBNA, RFI-POC grade; set-up: concentration or dose not given beside the values; remark: listed apart in the source
T12 construct: also called Ch
T12 sequence (Q96D31 other isoform, or with tags, fused parts or gaps): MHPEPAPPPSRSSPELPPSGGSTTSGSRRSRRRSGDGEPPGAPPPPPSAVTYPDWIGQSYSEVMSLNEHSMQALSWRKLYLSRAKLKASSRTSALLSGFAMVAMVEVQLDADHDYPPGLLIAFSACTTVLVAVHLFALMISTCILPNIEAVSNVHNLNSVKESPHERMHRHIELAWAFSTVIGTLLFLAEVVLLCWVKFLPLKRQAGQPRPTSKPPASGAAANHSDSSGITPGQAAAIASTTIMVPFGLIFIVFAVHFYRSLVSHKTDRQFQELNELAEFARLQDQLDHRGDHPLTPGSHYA

[13] = molecular target: T13, hOrai1-mOrai1 ECL2 (RPTSKPPA) protein (human/mouse chimera, UniProt Q96D31 1-301); test: FACS, 293EBNA, RFI-POC grade; set-up: concentration or dose not given beside the values
T13 construct: also called Ch
T13 sequence (Q96D31 other isoform, or with tags, fused parts or gaps): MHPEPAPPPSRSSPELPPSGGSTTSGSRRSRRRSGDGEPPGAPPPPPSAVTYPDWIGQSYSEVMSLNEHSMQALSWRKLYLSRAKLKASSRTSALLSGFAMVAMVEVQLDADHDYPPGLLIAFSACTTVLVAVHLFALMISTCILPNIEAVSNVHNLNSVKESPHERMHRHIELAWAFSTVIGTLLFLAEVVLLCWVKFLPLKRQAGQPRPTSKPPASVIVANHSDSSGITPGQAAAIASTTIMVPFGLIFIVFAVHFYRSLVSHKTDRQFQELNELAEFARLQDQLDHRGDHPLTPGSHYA

[14] = molecular target: T14, hOrai1-mOrai1 ECL2 (SKPPA) protein (human/mouse chimera, UniProt Q96D31 1-301); test: FACS, 293EBNA, RFI-POC grade; set-up: concentration or dose not given beside the values
T14 construct: also called Ch
T14 sequence (Q96D31 other isoform, or with tags, fused parts or gaps): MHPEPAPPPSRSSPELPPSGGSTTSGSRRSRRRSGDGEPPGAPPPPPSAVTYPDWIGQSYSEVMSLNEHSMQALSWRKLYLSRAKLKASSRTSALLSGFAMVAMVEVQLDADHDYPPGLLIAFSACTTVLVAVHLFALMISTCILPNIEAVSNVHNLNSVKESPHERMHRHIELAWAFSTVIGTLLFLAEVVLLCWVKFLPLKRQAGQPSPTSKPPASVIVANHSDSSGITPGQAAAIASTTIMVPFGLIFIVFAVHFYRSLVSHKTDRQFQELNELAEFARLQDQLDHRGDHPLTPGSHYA

[15] = molecular target: T9, mOrai1-hOrai1 ECL2 chimeric protein; test: FACS, 293EBNA, RFI-POC grade; set-up: concentration or dose not given beside the values; remark: listed apart in the source
Method in brief: (§3)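 HEK-293-EBNA cells expressing mOrai1-hOrai1 ECL2 chimeric mutants stained with recombinant monoclonal antibodies, then PE-labelled goat anti-human IgG F(ab′)2, and analysed by FACS. RFI-POC derived from geometric mean fluorescence; graded +++ (40–100%), ++ (5–<40%), + (1–<5%), − (<1%).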

[16] = molecular target: T15, mOrai1-hOrai1 ECL2 (HSD) protein (human/mouse chimera, UniProt Q8BWG9 1-304 (mouse entry)); test: FACS, 293EBNA, RFI-POC grade; set-up: concentration or dose not given beside the values
T15 construct: also called Ch
T15 sequence (Q8BWG9 other isoform, or with tags, fused parts or gaps): as the sequence (Q8BWG9 other isoform, or with tags, fused parts or gaps mutant) above, with V226H, T228D counted along it
Method in brief: as §3

[17] = molecular target: T2, mOrai1-hOrai1 ECL2 (…) protein; test: flow cytometry on HEK-293 cells transfected with the chimera (loss of binding experiment)
[18] = molecular target: T3, mOrai1-hOrai1 ECL2 (SPTKPPAE) protein; test: as above
[19] = molecular target: T4, mOrai1-hOrai1 ECL2 (KPPAE) protein; test: as above
[20] = molecular target: T5, mOrai1-hOrai1 ECL2 (…) protein; test: as above; remark: listed apart in the source
[21] = molecular target: T6, mOrai1-hOrai1 ECL2 (…) protein; test: as above; remark: listed apart in the source
[22] = molecular target: T7, mOrai1-hOrai1 ECL2 (…) protein; test: as above; remark: listed apart in the source
[23] = molecular target: T8, mOrai1-hOrai1 ECL2 (AESVIV) protein; test: as above

T1 sequence (Q96D31 other isoform, or with tags, fused parts or gaps mutant): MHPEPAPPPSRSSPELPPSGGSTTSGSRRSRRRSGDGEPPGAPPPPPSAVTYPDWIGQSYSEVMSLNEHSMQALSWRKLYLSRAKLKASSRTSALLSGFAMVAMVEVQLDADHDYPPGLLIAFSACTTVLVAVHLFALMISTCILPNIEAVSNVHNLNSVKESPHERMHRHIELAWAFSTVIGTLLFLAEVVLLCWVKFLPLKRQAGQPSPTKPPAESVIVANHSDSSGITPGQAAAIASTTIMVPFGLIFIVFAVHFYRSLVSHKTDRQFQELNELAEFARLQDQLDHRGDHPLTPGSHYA

POC (percent of control, FACS Geo Mean relative to binding to Ch. 1) [1] | POC (percent of control, FACS Geo Mean relative to binding to Ch. 1) [2] | POC (percent of control, FACS Geo Mean relative to binding to Ch. 1) [3] | POC (percent of control, FACS Geo Mean relative to binding to Ch. 1) [4] | POC (percent of control, FACS Geo Mean relative to binding to Ch. 1) [5] | POC (percent of control, FACS Geo Mean relative to binding to Ch. 1) [6] | POC (percent of control, FACS Geo Mean relative to binding to Ch. 1) [7] | POC (percent of control, FACS Geo Mean relative to binding to Ch. 1) [8] | percent of control (POC) of FACS Geo Mean [9] | percent of control (POC) of FACS Geo Mean [10] | percent of control (POC) of FACS Geo Mean [11] | percent of control (POC) of FACS Geo Mean [12] | percent of control (POC) of FACS Geo Mean [13] | percent of control (POC) of FACS Geo Mean [14] | POC (percent of control, FACS Geo Mean relative to binding to Ch. 1) [15] | POC (percent of control, FACS Geo Mean relative to binding to Ch. 1) [16] | binding result [17] | binding result [18] | binding result [19] | binding result [20] | Binder | further results
< 1% | < 1% | < 1% | < 1% | < 1% | < 1% | < 1% | < 1% | 40 to 100% | 40 to 100% | 40 to 100% | 40 to 100% | 40 to 100% | 40 to 100% | 40 to 100% | 40 to 100% | no binding | no binding | no binding | no binding | mAb 5A4.2 (antibody, human IgG2, lambda, V domains shown, fully human IgG2 lambda, Campaign 2) VH: QVQLVQSGAEVKKPGASVKVSCKASGYTFTDYYMNWVRQAPGQGLEWMGWINPNSGGTKYAQKFQGRVTMTRDTSIRTAYMELSRLRSDDTAVYYCSREYGGNSDWFDPWGQGTLVTVSS VL: QSVLTQPPSVSGAPGQRVTISCTGSSSNIGAGYDVHWYQQLPGTAPKLLIYGNSNRPSGVPDRFSGSKSGTSASLAITGLQAEDEADYYCQSYDNRLSDSVVIGGGTKLTVQG | binding result [21]: no binding; binding result [22]: no binding; binding result [23]: no binding
< 1% | < 1% | < 1% | < 1% | < 1% | < 1% | < 1% | < 1% | 40 to 100% | 40 to 100% | 40 to 100% | 40 to 100% | 40 to 100% | 40 to 100% | 40 to 100% | 40 to 100% | no binding | no binding | no binding | no binding | mAb 5F2.1 (antibody, human IgG2, lambda, V domains shown, fully human IgG2 lambda, Campaign 2) VH: QVQLVQSGAEVKKPGASVKVSCKASGYTFTDYYMNWVRQAPGQGLEWMGWINPNSGGTHYAQKFQGRVTMTRDTSISTAYMELSRLRSDDTAVYYCAREYGGYSDWFDPWGQGTLVTVSS VL: QSVLTQPPSVSGAPGQRVTISCTGSRSNIGAGYDVHWYQQLPRTAPKLLIYDNSNRPSGVPDRFSGSKSGSSASLAITGLQAEDEADYYCQSYDNSLSDSVLIGGGTKLTVLG | binding result [21]: no binding; binding result [22]: no binding; binding result [23]: no binding
< 1% | < 1% | < 1% | < 1% | < 1% | < 1% | < 1% | < 1% | 40 to 100% | 40 to 100% | 40 to 100% | 40 to 100% | 40 to 100% | 40 to 100% | 40 to 100% | 40 to 100% | no binding | no binding | no binding | no binding | mAb 5C1.1 (antibody, human IgG2, lambda, V domains shown, fully human IgG2 lambda, Campaign 2) VH: QVQLVQSGAEVKKPGASVKVSCKASGYTFTDYYMNWVRQAPGQGLEWMGWINPNSGGTKYAQKFQGRVTMTRDTSIRTAYMELSRLRSDDTAVYYCAREYGGNSDWFDPWGQGTLVTVSS VL: QSVLTQPPSVSGAPGQRVTISCTGSSSNIGAGYDVHWYQQLPGTAPKLLIYGNSNRPSGVPDRFSGSKSGTSASLAITGLQAEDEADYYCQSYDNRLSDSVVIGGGTKLAVQG | binding result [21]: no binding; binding result [22]: no binding; binding result [23]: no binding
< 1% | < 1% | < 1% | < 1% | < 1% | < 1% | < 1% | < 1% | 40 to 100% | 40 to 100% | 40 to 100% | 40 to 100% | 40 to 100% | 40 to 100% | 40 to 100% | 40 to 100% | no binding | no binding | no binding | no binding | mAb 5F7.1 (antibody, human IgG2, lambda, fully human IgG2 lambda, Campaign 2) heavy: QVQLVQSGAEVKKPGASVKVPCKASGYTFTDYYINWVRQAPGQGLEWMGWINPNNGGTNYAQKFQGRVTMTRDTSISTAYMELRRLRSDDTAVYYCARERGGYEDWFDPWGQGTLVTVSSASTKGPSVFPLAPCSRSTSESTAALGCLVKDYFPEPVTVSWNSGALTSGVHTFPAVLQSSGLYSLSSVVTVPSSNFGTQTYTCNVDHKPSNTKVDKTVERKCCVECPPCPAPPVAGPSVFLFPPKPKDTLMISRTPEVTCVVVDVSHEDPEVQFNWYVDGVEVHNAKTKPREEQFNSTFRVVSVLTVVHQDWLNGKEYKCKVSNKGLPAPIEKTISKTKGQPREPQVYTLPPSREEMTKNQVSLTCLVKGFYPSDIAVEWESNGQPENNYKTTPPMLDSDGSFFLYSKLTVDKSRWQQGNVFSCSVMHEALHNHYTQKSLSLSPGK light: QSVLTQPPSVSGAPGQRVTISCTGSSSNIGAGFDVHWYQQLPVTAPKLLIYGNRNRPSGVPARFSGSKSGTSASLAITGLQAEDEAVYYCQSYDSSLTVFGGGTKLTVLGQPKANPTVTLFPPSSEELQANKATLVCLISDFYPGAVTVAWKADGSPVKAGVETTKPSKQSNNKYAASSYLSLTPEQWKSHRSYSCQVTHEGSTVEKTVAPTECS | binding result [21]: no binding; binding result [22]: no binding; binding result [23]: no binding
